Results taken from publication PMC3207120.

How the values were obtained:
Settings in all cases: 100 mM Tris-HCl pH 7, 15 mM MgCl2, 37 °C
purified protein [1] = substrate: O=[N+]([O-])c1ccc(OP(=O)(O)O)cc1; experiment: purified protein
purified protein [2] = substrate: O=C(CO)[C@@H](O)[C@H](O)COP(=O)(O)O; experiment: purified protein
purified protein [3] = substrate: O=P(O)(O)O[C@H]1O[C@H](CO)[C@H](O)[C@H](O)[C@H]1O; experiment: purified protein
steady-state kinetics = substrate: O=P(O)(O)OC[C@H]1OC(O)[C@H](O)[C@@H](O)[C@@H]1O; experiment: steady-state kinetics; assay type: biochemical, Bacillus subtilis

B1: AraL (recombinant AraL-His6, pLG11) (Bacillus subtilis subsp. subtilis str. 168; V11M) (protein)
chain: MSPAGILIDLDGTVFRGNELIEGAREAIKTLRRMGKKIVFLSNRGNISRAMCRKKLLGAGIETDVNDIVLSSSVTAAFLKKHYRFSKVWVLGEQGLVDELRLAGVQNASEPKEADWLVISLHETLTYDDLNQAFQAAAGGARIIATNKDRSFPNEDGNAIDVAGMIGAIETSAQAKTELVVGKPSWLMAEAACTAMGLSAHECMIIGDSIESDIAMGKLYGMKSALVLTGSAKQGEQRLYTPDYVLDSIKDVTKLAEEGILI
- Km (purified protein [1]): 50.00 ± 23.32 mM
- kcat (purified protein [1]): 0.012 ± 0.0006 s⁻¹
- kcat/Km (purified protein [1]): 0.24 M⁻¹ s⁻¹
- Km (purified protein [2]): 29.14 ± 4.87 mM
- kcat (purified protein [2]): 2.75 ± 0.26 s⁻¹
- kcat/Km (purified protein [2]): 94.3 M⁻¹ s⁻¹
- Km (purified protein [3]): 40.74 ± 6.03 mM
- kcat (purified protein [3]): 4.28 ± 0.4 s⁻¹
- kcat/Km (purified protein [3]): 102 M⁻¹ s⁻¹
- Km (steady-state kinetics): 24.96 ± 4.08 mM
- kcat (steady-state kinetics): 2.49 ± 0.26 s⁻¹
- kcat/Km (steady-state kinetics): 99.8 M⁻¹ s⁻¹
